Positions count from the first letter of the chain named.
T1: 5T4 on the surface of target cells (JIMT-1, SKOV-3) (UniProt Q13641 32-420, limits assumed)
T1 construct: whole, on cells
T1 sequence (looked up): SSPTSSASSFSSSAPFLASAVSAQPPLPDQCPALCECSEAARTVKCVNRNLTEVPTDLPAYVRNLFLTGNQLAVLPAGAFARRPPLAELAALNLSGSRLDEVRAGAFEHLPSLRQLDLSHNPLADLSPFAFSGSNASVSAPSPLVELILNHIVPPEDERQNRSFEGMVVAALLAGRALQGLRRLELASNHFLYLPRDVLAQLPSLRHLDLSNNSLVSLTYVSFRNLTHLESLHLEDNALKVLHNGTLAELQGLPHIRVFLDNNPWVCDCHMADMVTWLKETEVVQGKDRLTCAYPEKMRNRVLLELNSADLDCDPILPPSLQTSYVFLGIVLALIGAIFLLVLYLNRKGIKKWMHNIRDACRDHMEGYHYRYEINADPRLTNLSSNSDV

B1: TRIDENT-B2 (bispecific antibody, human IgG1, kappa, L234A L235A)
chain 1: DIQMTQSPSSLSASVGDRVTITCRPSQDISNYLNWYQQKPDKTVKLLIYYTSRLRSGVPSRFSGSGSGTDFTFTISSLQPEDIATYFCQQGDTLPYTFGQGTKLEIKGGGSGGGGQVQLVQSGAEVKKPGASVKVSCKASGYTFTSYWINWVKQAPGQGLEWIGNIYPSDSYTNYNQKFKDKATITADKSTSTAYMELSSLRSEDTAVYYCTRDYGSAYSMSTWGQGTTVTVSSASTKGEVAACEKEVAALEKEVAALEKEVAALEKGGGDKTHTCPPCPAPEAAGGPSVFLFPPKPKDTLMISRTPEVTCVVVDVSHEDPEVKFNWYVDGVEVHNAKTKPREEQYNSTYRVVSVLTVLHQDWLNGKEYKCKVSNKALPAPIEKTISKAKGQPREPQVYTLPPSREEMTKNQVSLWCLVKGFYPSDIAVEWESNGQPENNYKTTPPVLDSDGSFFLYSKLTVDKSRWQQGNVFSCSVMHEALHNHYTQKSLSLSPGK
chain 2: DIQMTQSPSSLSASVGDRVTITCRPSQDISNYLNWYQQKPDKTVKLLIYYTSRLRSGVPSRFSGSGSGTDFTFTISSLQPEDIATYFCQQGDTLPYTFGQGTKLEIKGGGSGGGGQVQLVQSGAEVKKPGASVKVSCKASGYTFTSYWINWVKQAPGQGLEWIGNIYPSDSYTNYNQKFKDKATITADKSTSTAYMELSSLRSEDTAVYYCTRDYGSAYSMSTWGQGTTVTVSSASTKGKVAACKEKVAALKEKVAALKEKVAALKE
heavy: QVQLVQSGAEVKKPGASVKVSCKASGYTFTSFWMHWVRQAPGQGLEWMGRIDPNRGGTEYNEKAKSRVTMTADKSTSTAYMELSSLRSEDTAVYYCAGGNPYYPMDYWGQGTTVTVSSASTKGPSVFPLAPSSKSTSGGTAALGCLVKDYFPEPVTVSWNSGALTSGVHTFPAVLQSSGLYSLSSVVTVPSSSLGTQTYICNVNHKPSNTKVDKRVEPKSCDKTHTCPPCPAPEAAGGPSVFLFPPKPKDTLMISRTPEVTCVVVDVSHEDPEVKFNWYVDGVEVHNAKTKPREEQYNSTYRVVSVLTVLHQDWLNGKEYKCKVSNKALPAPIEKTISKAKGQPREPQVYTLPPSREEMTKNQVSLSCAVKGFYPSDIAVEWESNGQPENNYKTTPPVLDSDGSFFLVSKLTVDKSRWQQGNVFSCSVMHEALHNRYTQKSLSLSPGK
light: DIQMTQSPSSLSASVGDRVTITCRASQGISNYLAWFQQKPGKAPKSLIYRANRLQSGVPSRFSGSGSGTDFTLTISSLQPEDVATYYCLQYDDFPWTFGQGTKLEIKRTVAAPSVFIFPPSDEQLKSGTASVVCLLNNFYPREAKVQWKVDNALQSGNSQESVTEQDSKDSTYSLSSTLTLSKADYEKHKVYACEVTHQGLSSPVTKSFNRGEC
B2: TRIDENT-3 (other)
chain 1: DIQMTQSPSTLSASVGDRVTITCRASQSVGYMHWYQQKPGKAPKLLIYDTSKLASGVPSRFSGSGSGTEFTLTISSLQPDDFATYYCFQGSGYPFTFGGGTKLEIKGGGSGGGGEVKLDETGGGLVQPGRPMKLSCVASGFTFSDYWMNWVRQSPEKGLEWVAQIRNKPYNYETYYSDSVKGRFTISRDDSKSSVYLQMNNLRVEDMGIYYCTGSYYGMDYWGQGTSVTVSSASTKGEVAACEKEVAALEKEVAALEKEVAALEKGGGDKTHTCPPCPAPEAAGGPSVFLFPPKPKDTLMISRTPEVTCVVVDVSHEDPEVKFNWYVDGVEVHNAKTKPREEQYNSTYRVVSVLTVLHQDWLNGKEYKCKVSNKALPAPIEKTISKAKGQPREPQVYTLPPSREEMTKNQVSLWCLVKGFYPSDIAVEWESNGQPENNYKTTPPVLDSDGSFFLYSKLTVDKSRWQQGNVFSCSVMHEALHNHYTQKSLSLSPGK
chain 2: DVVMTQTPFSLPVSLGDQASISCRSSQSLVHSNGNTYLRWYLQKPGQSPKVLIYKVSNRFSGVPDRFSGSGSGTDFTLKISRVEAEDLGVYFCSQSTHVPWTFGGGTKLEIKGGGSGGGGQVTLRESGPALVKPTQTLTLTCTFSGFSLSTSGMSVGWIRQPPGKALEWLADIWWDDKKDYNPSLKSRLTISKDTSKNQVVLKVTNMDPADTATYYCARSMITNWYFDVWGAGTTVTVSSASTKGKVAACKEKVAALKEKVAALKEKVAALKE
heavy: B1 heavy
light: B1 light
B3: TRIDENT-B5 (bispecific antibody, human IgG1, kappa, L234A L235A)
chain 1: B1 chain 1 with R24Q, P25A, S52G, L54A, K153R
chain 2: B1 chain 2 with R24Q, P25A, S52G, L54A, K153R
heavy: B1 heavy
light: B1 light
notes: also called TRIDENT-BS
B4: DART-B (bispecific antibody)
chain 1: not shown
chain 2: DIQMTQSPSSLSASVGDRVTITCRPSQDISNYLNWYQQKPDKTVKLLIYYTSRLRSGVPSRFSGSGSGTDFTFTISSLQPEDIATYFCQQGDTLPYTFGQGTKLEIKGGGSGGGGQVQLVQSGAEVKKPGASVKVSCKASGYTFTNYGMNWVRQAPGQGLEWMGWINTNIGEPTYTEEFKGRVTMTRDTSISTAYMELSRLRSDDTAVYYCARDDGYGNRVSYWGQGTLVTVSSGGCGGGKVAACKEKVAALKEKVAALKEKVAALKE
B5: hCD137 MAB-3 (1.1) (antibody, V domains shown)
VH: QVQLVQSGAEVKKPGASVKVSCKASGYTFTSYWINWVKQAPGQGLEWIGNIYPSDSYTNYNQKFKDKATITADKSTSTAYMELSSLRSEDTAVYYCTRDYGSSYSFDYWGQGTTVTVSS
VL: DIQMTQSPSSLSASVGDRVTITCRPSQDISNYLNWYQQKPDGTVKLLIYYTSRLRSGVPSRFSGSGSGTDFTFTISSLQPEDIATYFCQQGDTLPYTFGQGTKLEIK
notes: also called chCD137 MAB-3 (1.1)
B6: hCD137 MAB-3 (1.2) (antibody, V domains shown)
VH: B5 VH
VL: B5 VL with D41G
notes: also called chCD137 MAB-3 (1.2)
B7: hCD137 MAB-3 (1.3) (antibody, V domains shown)
VH: B5 VH
VL: B5 VL with G42K
notes: also called chCD137 MAB-3 (1.3)

Tests used:
[1] = biological target: T2, CD137 on the surface of cells (activated human T cells; engineered CHO cells) (human, UniProt Q07011 24-255); assay: flow cytometry on activated CD8+ T cells (donor D59788, CD8 FITC), anti-hFc APC MFI
T2 construct: whole, on cells; also called human CD137; cell surface expressed CD137
T2 sequence (Q07011 24-255, change not shown): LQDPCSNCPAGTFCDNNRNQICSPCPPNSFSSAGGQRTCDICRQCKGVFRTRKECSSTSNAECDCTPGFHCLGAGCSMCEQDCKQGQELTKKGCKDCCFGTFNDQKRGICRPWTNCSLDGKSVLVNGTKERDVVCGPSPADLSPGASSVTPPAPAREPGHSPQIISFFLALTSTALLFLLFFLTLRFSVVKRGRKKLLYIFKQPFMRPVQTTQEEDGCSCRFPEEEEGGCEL

[2] = biological target: T1, 5T4 on the surface of target cells …; assay: flow cytometry on JIMT-1 (5T4 hi) cells, anti-hFc APC MFI
[3] = biological target: T1, 5T4 on the surface of target cells …; assay: flow cytometry on SKOV-3 (5T4 lo) cells, anti-hFc APC MFI
[4] = biological target: T2, CD137 on the surface of cells …; assay: flow cytometry on activated pan T cells gated CD8, anti-hFc APC MFI
[5] = biological target: T2, CD137 on the surface of cells …; assay: flow cytometry on activated CD8+ T cells (CD8 FITC), anti-hFc APC MFI
[6] = biological target: T3, HER2/neu on the surface of target cells (N87, JIMT-1, MCF-7, MDA-MB231) (UniProt P04626 23-1255, limits assumed); assay: flow cytometry on N87 cells, anti-hFc APC MFI
T3 construct: whole, on cells
In short: (§1)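 N87 or JIMT-1 cells were incubated 45 min at RT with serially diluted (5- or 10-fold) bispecific diabodies. Bound molecules were detected with APC-labelled anti-human Fc (30 min, RT), and APC MFI was read by flow cytometry.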

[7] = biological target: T4, extracellular portion of human HER2 fused to a histidine-containing peptide (human, UniProt P04626 23-652); assay: SPR (BIACORE), essentially as for Table 8
T4 construct: extracellular domain; also called huHER2; Human HER2/neu
Description: The humanized variants were selected to have improved binding affinity as compared to the parental murine antibody and as described may be further engineered to eliminate sequence liabilities (e.g., isomerization, deamidation sites) as described above. The binding affinity of several combinations of humanized VH and VL domains was examined by BIACORE®. Thus, an extracellular portion of human HER2 fused to a histidine-containing peptide (“huHER2”) was passed over a surface coated with immobilized antibody. Briefly, each test molecule was captured onto an F(ab)₂ goat-anti-human Fc-coated surface and then incubated in the presence of different concentrations (6.25 nM-50 nM) of huHER2. The kinetics of binding were determined via BIACORE® analysis binding (normalized 1:1 Langmuir binding model).
In a separate study, the binding kinetics of the CD137×TA bispecific diabody, DART-B (described above), were determined for binding to human HER2 and cynomolgus monkey HER2, essentially as described above.

[8] = biological target: T3, HER2/neu on the surface of target cells …; assay: flow cytometry on N87 gastric cancer cells, anti-hFc APC MFI
[9] = biological target: T3, HER2/neu on the surface of target cells …; assay: flow cytometry on JIMT-1 cells, anti-hFc APC MFI
In short: as §1

[10] = biological target: T2, CD137 on the surface of cells …; assay: flow cytometry on CD137-expressing CHO cells (CHO/137), anti-hFc APC MFI
[11] = biological target: T5, extracellular portion of human CD137 fused to a histidine-containing peptide (human, UniProt Q07011 24-186); assay: SPR (BIACORE); antibody captured on anti-human Fc; huCD137 25 and 100 nM; 1:1 Langmuir
T5 construct: extracellular domain; also called huCD137; His-tagged soluble human CD137
Method: (§2) Thus, an extracellular portion of human CD137 fused to a histidine-containing peptide (“huCD137”) was passed over a surface coated with immobilized antibody. Briefly, each test molecule was captured onto an F(ab)₂ goat-anti-human Fc-coated surface and then incubated in the presence of different concentrations (25 nM and 100 nM) of huCD137. The kinetics of binding were determined via BIACORE® analysis binding (normalized 1:1 Langmuir binding model).

[12] = biological target: T5, extracellular portion of human CD137 …; assay: SPR (BIACORE), against chCD137 MAB-3
Method: as §2

Binder | EC50 (read off the curve) [2] [µg/mL] | EC50 (read off the curve) [3] [µg/mL] | Kd [11] [nM] | koff [11] [s⁻¹] | kon [11] [M⁻¹ s⁻¹] | fold decrease in binding affinity relative to the murine antibodies [12] [fold] | further results
B1 | ~0.08 | ~0.04 | – | – | – | – | EC50 (read off the curve) [1]: ~7 ng/mL
B2 | ~0.08 | ~0.04 | – | – | – | – | –
B3 | ~0.08 | ~0.04 | – | – | – | – | EC50 (read off the curve) [1]: ~7 ng/mL
B4 | – | – | – | – | – | – | EC50 (read off the curve) [4]: ~0.1 nM; EC50 (read off the curve) [5]: ~0.02 µg/mL; EC50 (read off the curve) [6]: ~0.06 µg/mL; Kd [7]: 0.38 nM; koff [7]: 0.000182 s⁻¹; kon [7]: 480000 M⁻¹ s⁻¹; EC50 (read off the curve) [8]: ~0.5 nM; EC50 (read off the curve) [9]: ~0.03 µg/mL; EC50 (read off the curve) [10]: ~0.01 µg/mL
B5 | – | – | 46 | 0.031 | 670000 | ~2 | –
B6 | – | – | 49 | 0.03 | 610000 | ~2 | –
B7 | – | – | 50 | 0.033 | 660000 | ~2 | –

Reference: US20220406376A1 (MacroGenics, published 2022)
